{"source": "patent US7799901B2", "about": "“Modulators of the function of FAS receptors and other proteins” (Yeda Research and Development Co. Ltd., priority 1995, dated 2010)", "key": {"[1]": {"target": "T1, FAS-IC with replacement mutations at position 225 (Ile) (Mus musculus, UniProt P25446, I246A)", "T1 construct": "four constructs of the mouse Fas-IC including two full-length constructs; expressed in transfected cells; host or cells: SFY526 yeast", "T1 sequence (P25446 187-327 I246A)": "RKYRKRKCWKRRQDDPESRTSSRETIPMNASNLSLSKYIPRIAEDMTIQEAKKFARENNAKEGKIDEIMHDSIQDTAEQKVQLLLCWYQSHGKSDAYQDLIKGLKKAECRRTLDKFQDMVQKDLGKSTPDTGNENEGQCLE", "experiment": "Two-hybrid test of MORT-1 binding (FIG. 1), FAS-IC mutated at position 225", "details": "lpr^eg mutation site", "text": "(§1) To isolate proteins interacting with the intracellular domain of the FAS-R, the yeast two-hybrid system was used (Fields and Song, 1989). […] In this system, the genes for the candidate interacting proteins are cloned into separate expression vectors. In one expression vector, the sequence of the one candidate protein is cloned in phase with the sequence of the GAL4 DNA-binding domain to generate a hybrid protein with the GAL4 DNA-binding-domain, and in the other vector, the sequence of the second candidate protein is cloned in phase with the sequence of the GAL4 activation domain to generate a hybrid protein with the GAL4-activation domain. The two hybrid vectors are then co-transformed into a yeast host strain having a lacZ or HIS3 reporter gene under the control of upstream GAL4 binding sites. Only those transformed host cells (cotransformants) in which the two hybrid proteins are expressed and are capable of interacting with each other, will be capable of expressing the reporter gene. In the case of the lacZ reporter gene, host cells expressing this gene will become blue in color when X-gal is added to the cultures. […]\n(§2) In FIG. 1, there is depicted the interaction of the proteins encoded by the Gal4 DNA binding domain and activation-domain constructs (pGBT9 and pGAD-GH) within transfected SFY526 yeasts as assessed by β-galactosidase expression filter assay. […]"}, "[2]": {"target": "T2, GST-Fas-IC fusion protein with a replacement at the lpr^eg mutation site (I225A) (Mus musculus, UniProt P25446, I246A)", "T2 construct": "GST fusion with Fas-IC containing a Ile to Ala replacement mutation at position 225; made in house; host or cells: E. coli", "T2 sequence (P25446 187-327 I246A)": "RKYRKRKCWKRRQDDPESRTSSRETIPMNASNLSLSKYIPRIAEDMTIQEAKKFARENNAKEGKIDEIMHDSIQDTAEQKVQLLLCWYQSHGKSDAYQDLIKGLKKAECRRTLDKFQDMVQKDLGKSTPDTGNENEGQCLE", "experiment": "In vitro binding to GST-Fas-IC with I225A replacement", "details": "[35S]-labeled protein from HeLa extracts; SDS-PAGE, autoradiography", "description": "Glutathione S-transferase (GST) fusions with the wild type or a mutated Fas-IC were produced and adsorbed to glutathione-agarose beads; see Boldin et al, 1995; Ausubel et al, 1994; Frangioni and Neel, 1993). Binding of metabolically-labeled FLAG-MORT-1 fusion protein to GST-Fas-IC was assessed by incubating the beads for 2 h at 4° C. with extracts of HeLa cells, metabolically labeled with [^35S]methionine (60 μCi/ml), that express FLAG-MORT-1. The extracts were prepared in a buffer containing 50 mM Tris-HCl, pH 7.5, 150 mM NaCl, 0.1% NP-40; 1 mM dithioteitol, 1 mM EDTA, 1 mM phenylmethylsulfonyl fluoride, 20 μg/ml Aprotonin, […] Leupeptin, 10 mM-sodium fluoride and 0.1 mM sodium vanadate (1 ml per 5×10^5 cells).\nExpression of MORT-1 molecules fused at their N terminus with the. FLAG octapeptide (FLAG-MORT-1) yielded in HeLa cells proteins of four distinct sizes—about […], 28, 32, and 34 kD. […] Thus, the in vitro interaction was evaluated by assessing, by autoradiography following SDS-PAGE, the binding of [35] metabolically labeled MORT-1, produced in transfected HeLa cells as a fusion with the FLAG octapeptide (FLAG-MORT-1), to GST, GST fusion with the human or mouse Fas-IC (GST-huFas-IC, GST-mFas-IC) or to GST fusion with Fas-IC containing a Ile to Ala replacement mutation at position 225."}, "[3]": {"target": "T3, CD40 (Homo sapiens, UniProt P25942)", "T3 construct": "human CD40 (CD40-IC, residues 216-277); expressed in transfected cells; host or cells: SFY526 yeast", "T3 sequence (P25942 216-277)": "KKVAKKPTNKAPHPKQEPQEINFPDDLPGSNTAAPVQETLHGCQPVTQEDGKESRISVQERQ", "experiment": "Two-hybrid test of MORT-1 binding (FIG. 1), CD40", "details": "CD40-IC residues 216-277, FIG. 1", "text": "as §1, §2"}, "[4]": {"target": "T4, MORT-1 (Homo sapiens, UniProt Q13158, G32V)", "T4 sequence (Q13158 with tags, fused parts or gaps G32V)": "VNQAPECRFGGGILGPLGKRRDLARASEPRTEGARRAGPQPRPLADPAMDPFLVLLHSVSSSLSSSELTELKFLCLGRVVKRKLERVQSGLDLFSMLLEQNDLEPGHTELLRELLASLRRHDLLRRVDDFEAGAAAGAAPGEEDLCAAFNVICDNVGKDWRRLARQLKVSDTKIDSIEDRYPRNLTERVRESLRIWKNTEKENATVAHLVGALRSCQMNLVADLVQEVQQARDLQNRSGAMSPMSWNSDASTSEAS", "experiment": "Two-hybrid test (FIG. 1), binding to full-length MORT-1", "parameters": "expressed in transfected cells; host or cells: SFY526 yeast", "text": "To isolate proteins interacting with the intracellular domain of the FAS-R, the yeast two-hybrid system was used (Fields and Song, 1989). […] In this system, the genes for the candidate interacting proteins are cloned into separate expression vectors. In one expression vector, the sequence of the one candidate protein is cloned in phase with the sequence of the GAL4 DNA-binding domain to generate a hybrid protein with the GAL4 DNA-binding-domain, and in the other vector, the sequence of the second candidate protein is cloned in phase with the sequence of the GAL4 activation domain to generate a hybrid protein with the GAL4-activation domain. The two hybrid vectors are then co-transformed into a yeast host strain having a lacZ or HIS3 reporter gene under the control of upstream GAL4 binding sites. Only those transformed host cells (cotransformants) in which the two hybrid proteins are expressed and are capable of interacting with each other, will be capable of expressing the reporter gene. In the case of the lacZ reporter gene, host cells expressing this gene will become blue in color when X-gal is added to the cultures.\n(b) retransforming the plasmid DNA and original FAS-IC hybrid plasmid and control plasmids described in (a) into yeast host cells of strain SFY526 and determining the LACZ^+ activity (effectivity of β-gal formation, i.e., blue color formation).\nIn FIG. 1, there is depicted the interaction of the proteins encoded by the Gal4 DNA binding domain and activation-domain constructs (pGBT9 and pGAD-GH) within transfected SFY526 yeasts as assessed by β-galactosidase expression filter assay. The DNA-binding-domain constructs included four constructs of the human Fas-IC, four constructs of the mouse Fas-IC including two full-length constructs having […] or Ile to Ala replacement mutations at position 225 (I225N and I225A, respectively), and three MORT-1 constructs, all of which are shown schematically on the left hand side of FIG. 1. […]"}}, "data": [{"molecule": "MORT-1: Mediator of Receptor-induced Toxicity; protein binding the intracellular domain of FAS-R, SEQ ID NO:2 (protein) VNQAPECRFGGGILGPLGKRRDLARASEPRTEGARRAGPQPRPLADPAMDPFLVLLHSVSSSLSSSELTELKFLCLGRVVKRKLERVQSGLDLFSMLLEQNDLEPGHTELLRELLASLRRHDLLRRVDDFEAGAAAGAAPGEEDLCAAFNVICDNVGKDWRRLARQLKVSDTKIDSIEDRYPRNLTERVRESLRIWKNTEKENATVAHLVGALRSCQMNLVADLVQEVQQARDLQNRSGAMSPMSWNSDASTSEAS", "values": [{"measurement": "binding to FAS-IC with replacement mutation at position 225", "setting": "[1]", "value": "prevents binding"}, {"measurement": "in vitro binding to GST-Fas-IC (I225A)", "setting": "[2]", "value": "did not bind"}, {"measurement": "binding to CD40 in two-hybrid test", "setting": "[3]", "value": "not"}, {"measurement": "binding to full-length MORT-1 in two-hybrid test", "setting": "[4]", "value": "binds to itself"}]}]}
